Results: patent publication US7960140B2, “Avidin mutants” (Orion Diagnostica Oy, priority 2003, dated 2011)
Where two headings read alike, the source gives them in different places. One block for each molecule: values may come before it.

Assays:
[1] = SDS-PAGE-based thermal stability assay; format: physicochemical; settings: for SDS-PAGE stability assay Tr (−)biotin / SDS-PAGE stability assay Tr (+)biotin: Table 5; for SDS-PAGE stability assay Tr (−)biotin: transition midpoint of oligomeric disassembly, without biotin; for SDS-PAGE stability assay Tr (+)biotin: with biotin; for Tr / Tr + btn: Table 2; for Tr: absence of biotin, half of tetramer/pseudo-tetramer broken into monomers; for Tr + btn: presence of biotin
Protocol: Thermal stability of the mutants was studied by using a SDS-PAGE-based method essentially as described in detail by Bayer et al. (Bayer, E. A. et al. Electrophoresis 17, 1319-1324 (1996)). Briefly, the protein sample in the absence or presence of biotin was diluted to a final concentration of 0.2 mg/mil in 50 mM Na-carbonate buffer, and the proteins were acetylated by adding acetyl NHS ester. Equal amount of SDS-PAGE sample buffer was added to each sample and the protein was incubated at different temperatures (between 25-100° C.) for 20 minutes. After that the samples were subjected to SDS-PAGE analysis and the gel was finally stained with Coomassie brilliant blue. Dissociation of the proteins into their subunits was observed from the gels and the transition temperatures, wherein half of the protein was (pseudo-)tetrameric and half monomeric were determined.

[2] = Dissociation assay with fluorescent biotin conjugate (ArcDia BF560); format: binding; settings: for Release 1 h / t1/4 (time point of 25% release) / kdiss: 23 ± 1° C.; for Release 1 h: 100-fold molar excess of free biotin; for t1/4 (time point of 25% release): determined directly from the measured data; for kdiss: one-phase dissociation model
Protocol: The biotin-binding properties of produced mutagenised dcAvds were analysed by method based on the quenching of biotin-coupled fluorescent probe ArcDia BF560 (ArcDia Ltd., Turku, Finland) due to binding to avidin (FIG. 4). PerkinElmer LS55 luminometer was used for measurements. […] The spectra of 50 nM biotin-Bf560 solution in 50 mM Na-phosphate containing 650 mM NaCl was measured (red). Chicken avidin (Belovo S. A., Bastogne, Belgium) was added to final subunit concentration of 83 nM and green spectra was obtained.
Briefly, 50 nM free biotin-Bf560 solution in 50 mM Na-phosphate containing 650 mM NaCl was measured using excitation at 560 nm (2.5 nm slit) and emission was collected at 578 nm (5 nm slit). Continuous stirring (setting low) was used throughout the analysis. After 100 sec measurement, the protein under study was added to final biotin-binding subunit concentration 50 nM and the measurement was continued for 500 sec. […]
A one-phase dissociation model was used to analyse the data, as described elsewhere (Hytönen et al., (2004) Biochem J, in press). The dissociation rate constant (kdiss) was determined by fitting the equation −kdisst=ln(B/Bo) to the data. Bo is the measured maximum binding (100%) determined as the difference between the fluorescence of the free dye and the fluorescence of the protein-dye complex, and B is the amount of complex measured as a function of time. The first 500 seconds were omitted from the data to abolish the effect of the fast initial phase characteristic of avidin-BF560-biotin interaction (FIG. 9). The fraction of fluorescent biotin released after one-hour was determined, as well as the times of half-maximal (t½) and quarter-maximal (t¼) release. For dual chain avidins with modified binding sites, it was hypothesized that 50% of the binding sites would behave like those of wt avidin (cpAvd5S4 binding site of dcAvd was not modified). The dissociation data measured for wt avidin divided by two was subtracted from the data measured for the modified dual chain avidins and the dissociation curve was fitted to the difference as above.

[3] = Heat-induced unfolding by DSC; format: physicochemical; settings: for ΔTm: change in Tm upon addition of a three-fold molar excess of biotin; for DSC Tm (+)biotin: three-fold molar excess of biotin; for DSC Tm (−)biotin: without biotin
[4] = IAsys optical biosensor binding to immobilised 2-iminobiotin; settings: for kass / kdiss: 2-iminobiotin surface, 50 mM borate pH 9.5, 1 M NaCl, 20° C.; for Kd: 2-iminobiotin
Protocol: Reversibility of biotin binding and affinity towards 2-iminobiotin were determined with an IAsys optical biosensor (Affinity Sensors, Cambridge, UK) (Table 1.) as described in detail by Marttila et. al. (Marttila, A. T. et al. FEBS Lett 441, 313-7 (1998)). Briefly, The 2-iminobiotin ligand was immobilized onto the carboxymethyldextran surface of a cuvette using N-hydroxysuccinimide activation. Binding of various concentrations of avidin or avidin mutants onto 2-iminobiotinylated surface was measured in a 50 mM borate buffer (pH 9.5) containing 1 M NaCl at 20° C. The 2-iminobiotin cuvettes were regenerated with 20 mM HCl. The kinetic rate constants for association (kass) and dissociation (kdiss) were calculated using the Fast Fit program package (Affinity Sensors). The obtained rate constants were used to calculate Kd(rel) according to Kd=kdiss/kass. Equilibrium data obtained from measurements with different protein concentrations were used to calculate the dissociation constant Kd(eq).

[5] = Reversibility of biotin binding on biotinylated IAsys cuvette surface; settings: reversibility from biotin surface; biotin 423 μg/ml, one hour
Protocol: The reversibility of biotin binding was also measured using IAsys apparatus. In the reversibility assay, the sample proteins were allowed to bind to the biotinylated cuvette surface in PBS containing 1 M NaCl. After the equilibrium was reached, the cuvette was filled with PBS, 1 M NaCl containing biotin (423 μg/ml) and the dissociation of the proteins was monitored for one hour.

[6] = Free biotin-binding sites by quenching of intrinsic fluorescence on biotin titration; settings: for Fluorescence quenching (350 nm): intrinsic fluorescence, emission 350 nm, due to binding of biotin; for Number of free biotin-binding sites per quaternary unit: protein 500±15 nM, titrated with biotin
Protocol: The number of free binding sites was determined based on the quenching of the intrinsic fluorescence of avidin due to binding of biotin (Laitinen et al., (2003) J. Biol. Chem. 278, 4010-4014). The protein sample under study diluted to 2 ml volume in 50 mM NaPO4 pH 7.0+650 mM NaCl was titrated with 1 μl additions of 70 μM biotin solution in the same buffer. The protein concentration in this assay was 500±15 nM, and the concentration was determined by comparing the emission intensity averaged over 340-350 nm (excitation at 280 nm) to avidin standard sample. The protein sample was continuously mixed by magnetic stirrer.
Intensity from each biotin concentration was averaged over eight second measurement. The end-point of the quenching was determined by fitting a line to obtained data and determining the total quenching by averaging the last three measured intensities (FIG. 12, Table 6).

[7] = Microplate temperature stability assay; format: physicochemical; settings: for activity after 32 min treatment: 80° C.
Protocol: FIG. 13. Temperature sensitivity determined by microplate assay. The avidin, dcAvd and scAvd sample is treated with the indicated temperature for certain time and the ability to bind biotinylated alkaline phosphatase was determined by coating the microplate with the sample.
The stability of the protein was studied by microplate assay as described in the article by Nordlund et al., (2003) J Biol Chem 278, 2479-83. In this assay, 50 mM Na—PO4 buffer containing 100 mM NaCl was used and the protein was heated to 80° C. or 90° C. for certain time. After that, the capacity to bind fluorescent biotin was measured as described in the article by Nordlund et al., (2003) J Biol Chem 278, 2479-83.

[8] = Colorimetric HABA-assay for number of free biotin-binding sites; settings: average from two independent experiments
Protocol: The colorimetric HABA-assay was performed essentially as described by Green (Green, N. Methods in Enzymology 18, 418-424 (1970)). Dual-chain avidin (dcAvd) in 100 mM phosphate buffer (pH 7) was saturated with excess HABA and the absorbance was measured at 500 nm with a Beckman DU640 spectrophotometer. After that, excess biotin, which replaces HABA from the binding site, was added to the sample and the absorbance at 500 nm was measured again. The observed change in the absorbance was used to calculate the number of free binding sites in dcAvd.
The number of biotin-binding sites per dual-chain avidin pseudo-tetramer (is actually a dimer with four binding sites) was determined in a colorimetric HABA-assay according to Green (Green, N. Methods in Enzymology 18, 418-424 (1970)). The average from two independent experiments gave an approximation of 3.3 free biotin-binding sites per dimeric molecule (pseudo-tetramer).

[9] = calculated from the rate constants (kdiss/kass), read-out: Kd(rel)
[10] = determined experimentally from the binding curves, read-out: Kd(eq)

Molecule: Avd(S16A): avidin mutant S16A in all four subunits
SDS-PAGE stability assay Tr (−)biotin [1]: 55 °C
SDS-PAGE stability assay Tr (+)biotin [1]: 80 °C
Release 1 h [2]: 74.5%
t1/4 (time point of 25% release) [2]: 621 s
kdiss [2]: 0.00036 s⁻¹
ΔTm [3]: 30.3 °C
DSC Tm (+)biotin [3]: 114.6 ± 0.2 °C
DSC Tm (−)biotin [3]: 84.3 ± 0.3 °C

Molecule: Avd(Y33H): avidin with four identically mutagenised (Y33H) subunits (Marttila et al. 2003) [reference compound]
SDS-PAGE stability assay Tr (+)biotin [1]: 75 °C
dissociation of biotin-coupled fluorescent probe with excess unlabeled biotin ([2]; 5 μM free biotin, 3600 sec, 23±0.5° C.): rapid and complete dissociation
Release 1 h [2]: 99.2%
t1/4 (time point of 25% release) [2]: 149 s
kdiss [2]: 0.0011 s⁻¹
ΔTm [3]: 33.3 °C
DSC Tm (+)biotin [3]: 106.3 °C
DSC Tm (−)biotin [3]: 73.0 °C

kass [4]: (5.5 ± 0.5) × 10^5 M^−1s^−1
kdiss [4]: (1.9 ± 1.4) × 10^−3 s^−1
Kd [4, 9]: 34 nM
Kd [4, 10]: 22 nM
reversibility [5]: 9%
quenching measured for whole emission spectrum (290-500 nm) due to biotin binding [6]: 44.9%
Fluorescence quenching (350 nm) [6]: 47.7%
Number of free biotin-binding sites per quaternary unit [6]: 3.34
Number of free biotin-binding sites per quaternary unit ([6]; listed as avidin): 3.3
Molecule: Avidin: wild-type chicken avidin, homotetramer (SEQ ID NO:1) [reference compound]
Tr [1]: 60 °C
Tr + btn [1]: 95 °C
SDS-PAGE stability assay Tr (−)biotin [1]: 60 °C
SDS-PAGE stability assay Tr (+)biotin [1]: 95 °C
Release 1 h [2]: 14.1%
kdiss [2]: 2.3e-05 s⁻¹
Dissociation of fluorescent biotin Release 1 h ([2]; 25° C.): 14.1%
Dissociation of fluorescent biotin kdiss ([2]; 25° C.): 2.3e-05 s⁻¹
Dissociation of fluorescent biotin Release 1 h ([2]; 50° C.): 71.5%
Dissociation of fluorescent biotin kdiss ([2]; 50° C.): 0.00024 s⁻¹
ΔTm [3]: 33.5 °C
DSC Tm (+)biotin [3]: 117.0 ± 0.7 °C
DSC Tm (−)biotin [3]: 83.5 ± 0.1 °C
activity after 32 min treatment ([7]; 32 min): 82%
activity present after 32 min treatment ([7]; 90° C., 32 min): over 50%
heat inactivation ([7]; 100° C.): significantly slower response to the heat treatment

kass [4]: (9.8 ± 1.3) × 10^4 M^−1s^−1
kdiss [4]: (1.1 ± 0.5) × 10^−3 s^−1
Kd [4, 9]: 110 nM
Kd [4, 10]: 41 nM
reversibility [5]: 8%
free biotin-binding sites per dimeric molecule (pseudo-tetramer) [8]: ~3.3
quenching measured for whole emission spectrum (290-500 nm) due to biotin binding [6]: 45.1%
Fluorescence quenching (350 nm) [6]: 51.4%
Number of free biotin-binding sites per quaternary unit [6]: 3.86
B1: dcAvd: dual-chain avidin, fusion of cpAvd5→4 and cpAvd6→5 via SGG spacer (SEQ ID NO:2) (protein, listed as Gallus gallus)
chain: MVHATSPLLLLLLLSLALVAPGLSARKRTQPTFGFTVNWKFSESTTVFTGQCFIDRNGKEVLKTMWLLRSSVNDIGDDWKATRVGINIFTRLRTQKEGGSGGSARKCSLTGKWTNDLGSNMTIGAVNSRGEFTGTYITAVTATSNEIKESPLHGTQNTINKSGGSTTVFTGQCFIDRNGKEVLKTMWLLRSSVNDIGDDWKATRVGINIFTRLRTQKEGGSGGSARKCSLTGKWTNDLGSNMTIGAVNSRGEFTGTYITAVTATSNEIKESPLHGTQNTINKRTQPTFGFTVNWKFSE
Tr [1]: 40 °C
Tr + btn [1]: 75 °C
SDS-PAGE stability assay Tr (−)biotin [1]: 40 °C
SDS-PAGE stability assay Tr (+)biotin [1]: 75 °C
Release 1 h [2]: 10.1%
kdiss [2]: 1.4e-05 s⁻¹
Dissociation of fluorescent biotin Release 1 h ([2]; 25° C.): 10.1%
Dissociation of fluorescent biotin kdiss ([2]; 25° C.): 1.5e-05 s⁻¹
Dissociation of fluorescent biotin Release 1 h ([2]; 50° C.): 67.4%
Dissociation of fluorescent biotin kdiss ([2]; 50° C.): 0.00027 s⁻¹
ΔTm [3]: 35.7 °C
DSC Tm (+)biotin [3]: 115.9 °C
DSC Tm (−)biotin [3]: 80.2 ± 0.0 °C
activity after 32 min treatment ([7]; 32 min): 59%
heat inactivation ([7]; 90° C.): fast denaturation
heat inactivation ([7]; 100° C.): fast inactivation
